Laboratory results from patent publication US20220162306A1.
Values joined by “and” are separate entries in the source; they are usually repeats but may differ in a detail not shown here. Equal entries are not always repeated.

Tests used:
[1] = target: receptors on circulating human B cells (CD32B and CD79B, the two targets of PRV-3279)
[2] = target: CD32B (Fc gamma receptor IIb) (human) (UniProt P31994); experiment: cell-based or functional assay
[3] = target: receptors on circulating human B cells (CD32B and CD79B, the two targets of PRV-3279); experiment: receptor occupancy on circulating B cells of dosed healthy subjects (FIG. 3B)

CD32B (Fc gamma receptor IIb) (human), sequence (P31994 43-310): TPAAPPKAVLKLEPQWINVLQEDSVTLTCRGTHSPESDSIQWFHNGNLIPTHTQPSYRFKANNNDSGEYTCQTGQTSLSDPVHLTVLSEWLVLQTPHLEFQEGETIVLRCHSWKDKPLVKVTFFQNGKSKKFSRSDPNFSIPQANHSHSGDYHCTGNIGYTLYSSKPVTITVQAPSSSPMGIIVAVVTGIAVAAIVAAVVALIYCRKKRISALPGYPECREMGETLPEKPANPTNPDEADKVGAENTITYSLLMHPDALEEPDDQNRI

## PRV-3279, a humanized CD32B×CD79B DART® protein (bispecific antibody)
[1]
  percent of available CD19+ B cells bound: > 85%
  receptor occupancy: > 50%
[2]
  inhibition of anti-human IgM stimulated B-cell proliferation (3H-thymidine incorporation), 100 nM PRV-3279, B cells of SLE patients with active or inactive disease: 60%
  inhibition of anti-human IgM stimulated B-cell proliferation (3H-thymidine incorporation), 100 nM PRV-3279, B cells of normal healthy volunteers and SLE patients: 60%
[3]
  percent of receptors occupied: 70% and 75%
